Measured values reported in patent US20250297282A1.

Molecular target: GFP-encoding lentiviral particles

StrepTactin Superflow column (0.2 mL resin bed, 3 mg binding capacity per mL; IBA Lifesciences GmbH)
GFP+ cells (gate over CD8- and CD8+ cells) among T cells five days after transduction with the biotin elution fraction of the column without VBP (-VB), by flow cytometry: 0.069%
